Test results as given in patent US20110251140A1 (CENTRO DE INGENIERIA GENETICA Y BIOTECNOLOGIA, published 2011).
No end group written: not given here.

T1: IL-15Rα on CTLL-2 cells (murine (CTLL-2 murine cell line), UniProt Q60819 33-263)
T1 sequence (looked up): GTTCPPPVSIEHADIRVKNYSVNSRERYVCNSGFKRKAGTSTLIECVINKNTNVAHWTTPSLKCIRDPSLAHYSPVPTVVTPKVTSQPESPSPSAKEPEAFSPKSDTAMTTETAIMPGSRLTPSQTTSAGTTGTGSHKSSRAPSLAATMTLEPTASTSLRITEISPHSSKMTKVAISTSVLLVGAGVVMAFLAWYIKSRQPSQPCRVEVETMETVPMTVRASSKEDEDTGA


Target: T1, IL-15Rα on CTLL-2 cells
Assay: cell-based or functional assay

| Binder | fold inhibitory activity against the original peptide, CTLL-2 proliferation assay [fold] | inhibitory concentration 50 (IC50), IL-15-dependent proliferation [µM] |
| --- | --- | --- |
| KVTAMTCFLL-NH2 [peptide SEQ ID No. 12 (Lys-Thr mutant, monomer)] | 5 |  |
| KVTAMTCFLL-NH2 (also: homodimer, two monomers linked through the free Cys) [peptide dimer of SEQ ID No. 12 linked through the free Cys] | 15 | 8 |

Target: T1, IL-15Rα on CTLL-2 cells
Assay: cell-based or functional assay
Remark: another data set of the same source

| Binder | IC50 (µM), IL-15-induced (300 pg/mL) proliferation of the CTLL-2 cell line, MTT [µM] | IC50 (µM), IL-15-induced proliferation of the CTLL-2 cell line, MTT; '0' stands for loss of the inhibitory effect [µM] |
| --- | --- | --- |
| KVTAMKCFLL-NH2 [KVTAMKCFLL (IL-15 antagonistic peptide of patent application No. WO2006/029578)] | 130 |  |
| KVTAMTCFLL-NH2 [peptide SEQ ID No. 12 (Lys-Thr mutant, monomer)] | 24.6 |  |
| KVTAMECFLL-NH2 |  | 0 |
| KVTAMTCYLL-NH2 | 57.7 |  |
| KVTAMKCFLA-NH2 | 260 |  |
| KVTAMKCFAL-NH2 | 200 |  |
| KVTAMKCALL-NH2 [mutant Phe-Ala (SEQ ID No. 4)] |  | 0 |
| KVTAMKAFLL-NH2 [Cys-Ala mutant (SEQ ID No. 5)] |  | 0 |
| KVTAAKCFLL-NH2 | 130 |  |
| KVAAMKCFLL-NH2 | 130 |  |
| KATAMKCFLL-NH2 | 130 |  |
| KVTAMKSFLL-NH2 |  | 0 |
